Reference: paper PMC3810306
pKd: −log10 of the molar value.

Target: human CD47 IgSF domain (human)
Assay: SPR

Substance “wild-type human SIRPα allele 1 monomer (V-set Ig domain, domain 1) (domain or fragment)” has a pKd of 6.30 to 6.52 and a dissociation half-life (t1/2) of 1.8 s.
For “high-affinity SIRPα variant CV1 (consensus variant 1) monomer (designed binder)”, the pKd was 10.95.
